In patent publication US20250276092A1 (Regeneron, published 2025):
Values belong to the binder of their own block, whether it stands above or below them.

Columns and labels:
[1] = target: T1, human CD40 expressed on cells (human, UniProt P25942 21-277); assay: cell-based or functional assay
[2] = target: T2, mouse CD40 extracellular domain expressed with a C-terminal myc-myc-hexahistidine tag (mouse); assay: SPR 37C, captured mAb
T2 construct: also called mCD40-MMH; REGN3098
T2 chain: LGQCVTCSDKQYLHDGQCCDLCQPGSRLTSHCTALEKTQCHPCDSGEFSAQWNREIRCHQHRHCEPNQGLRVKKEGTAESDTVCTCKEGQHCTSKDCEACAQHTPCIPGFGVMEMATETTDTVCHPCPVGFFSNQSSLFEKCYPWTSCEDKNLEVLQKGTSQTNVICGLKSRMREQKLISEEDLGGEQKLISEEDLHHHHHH
Procedure: (§1) The equilibrium dissociation constants (KD) for anti-CD40 bivalent and bispecific monoclonal antibodies (mAbs) were determined using a real-time surface plasmon resonance (SPR)-based Biacore 4000 biosensor. All binding studies were performed in 10 mM HEPES, 150 mM NaCl, 3 mM EDTA, and 0.05% v/v surfactant Tween-20, pH 7.4 (HBS-ET) running buffer at 25° C. and 37° C. The Biacore CM5 sensor surface was first derivatized by amine coupling with a monoclonal mouse anti-human Fc antibody (REGN2567) to capture anti-CD40 bivalent parental and anti-CD40×CD40 bispecific antibodies. Different concentrations of CD40 reagents, human CD40 extracellular domain expressed with a C-terminal myc-myc-hexahistidine tag (“hCD40-MMH”; REGN3094; SEQ ID NO: 53), monkey CD40 extracellular domain expressed with a C-terminal myc-myc-hexahistidine tag (“mfCD40-MMH”; REGN3097; SEQ ID NO: 54), and mouse CD40 extracellular domain expressed with a C-terminal myc-myc-hexahistidine tag (“mCD40-MMH”; REGN3098; SEQ ID NO: 55), at concentrations ranging from 3.7 nM to 100 nM or 3.3 nM to 90 nM in a series of 3-fold dilutions prepared in HBS-ET running buffer were injected at a flow rate of […] for 4 minutes or […] for 5 minutes. The dissociation of different CD40 reagents bound to anti-CD40 bivalent parental and anti-CD40×CD40 bispecific antibodies was monitored for 10 minutes in HBS-ET running buffer. At the end of each cycle, the anti-CD40 bivalent parental and anti-CD40×CD40 bispecific antibodies capture surface was regenerated using a 12 sec injection of 20 mM H₃PO₄.
(§2) The association rate (ka) and dissociation rate (kd) were determined by fitting the real-time binding sensorgrams to a 1:1 binding model with mass transport limitation using Scrubber 2.0c curve-fitting software. Binding dissociation equilibrium constant (KD) and dissociative half-life (t½) were calculated from the kinetic rates as: KD (M)=kd/kₐ, and t_{1/2} (min)=[ln(2)/(60*kd)].

[3] = target: T3, human CD40 extracellular domain expressed with a C-terminal myc-myc-hexahistidine tag (human); assay: SPR 37C, captured mAb
T3 construct: also called hCD40-MMH; hCD40-mmH
Procedure: as §1, §2

[4] = target: T1, human CD40 expressed on cells; assay: cell-based or functional assay; remark: listed apart in the source
[5] = target: T2, mouse CD40 extracellular domain …; assay: SPR 25C, captured mAb
Procedure: as §1, §2

[6] = target: T3, human CD40 extracellular domain …; assay: SPR 25C, captured mAb
Procedure: as §1, §2

[7] = target: T4, monkey CD40 extracellular domain expressed with a C-terminal myc-myc-hexahistidine tag (monkey); assay: SPR 25C, captured mAb
T4 construct: also called mfCD40-MMH; REGN3097
T4 chain: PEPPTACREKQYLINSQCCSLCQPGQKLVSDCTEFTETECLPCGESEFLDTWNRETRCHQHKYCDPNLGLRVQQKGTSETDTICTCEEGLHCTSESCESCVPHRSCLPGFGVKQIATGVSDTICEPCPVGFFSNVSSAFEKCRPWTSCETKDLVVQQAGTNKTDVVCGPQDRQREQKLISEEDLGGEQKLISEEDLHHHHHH
Procedure: as §1, §2

[8] = target: T1, human CD40 expressed on cells; assay: cell-based or functional assay; remark: listed apart in the source
[9] = target: T3, human CD40 extracellular domain …; assay: ELISA, blocks 40 nM hCD40-mmH binding to coated 9His-hCD40L
Procedure: In the blocking assay, 9His-hCD40L was passively absorbed at a concentration of 5 μg/mL in PBS on a 96-well microtiter plate overnight at 4° C. […] In a separate 96-well microtiter plate, a fixed amount of 40 nM hCD40-mmH was pre-mixed with one of the following antibodies, at concentrations ranging from 977 pM to 1 μM in PBS+0.5% BSA: (1) anti-CD40×CD40 bispecific antibodies (REGN16431, REGN16432, REGN16634, and REGN16335); (2) parental anti-CD40 mAbs (bivalent antibodies comprising 2 fragment antigen-binding [Fab] arms identical to one of anti-CD40 Fab of anti-CD40×CD40 antibodies); (3) anti-CD40×Irrelevant antibodies (bivalent antibodies that incorporate one Fab arm identical to one of anti-CD40 Fab of anti-CD40×CD40 antibodies and another Fab arm specific to an irrelevant antigen); and (4) human IgG4 with Fc mutation isotype control antibodies (REGN7540 and REGN4513). The fixed concentration of hCD40-mmH was selected to be near the concentration (EC₅₀ value) that generated 50% of the maximal binding to the plate-adhered 9His-hCD40L. After one-hour incubation, the antibody-antigen complexes were transferred to the microtiter plate coated with 9His-hCD40L. After one hour incubation at room temperature, the plates were washed, and plate-bound hCD40-mmH protein was detected with horseradish peroxidase (HRP) conjugated goat anti-c-Myc antibody. The plates were then developed using TMB substrate solution (BD Biosciences) according to the manufacturer's recommended procedure and the absorbance at 450 nm (OD₄₅₀) was measured on a SpectraMax i3× plate reader.
Binding data were analyzed using a sigmoidal (four-parameter logistic) dose-response model with GraphPad Prism™ software. […] The percent blocking of tested antibodies at the highest tested concentration ([…]) was calculated based on the formula shown below: […]

T1 sequence (P25942 21-277): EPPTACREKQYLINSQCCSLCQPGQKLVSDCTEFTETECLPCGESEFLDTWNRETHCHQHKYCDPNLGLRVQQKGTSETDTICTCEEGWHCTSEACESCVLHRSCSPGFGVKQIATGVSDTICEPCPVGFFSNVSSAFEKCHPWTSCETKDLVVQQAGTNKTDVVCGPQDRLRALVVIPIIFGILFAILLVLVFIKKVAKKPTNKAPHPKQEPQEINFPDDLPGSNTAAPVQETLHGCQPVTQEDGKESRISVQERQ

EC50 in the presence of CD40L (potentiation), NFkB-luc THP-1, 10 nM hCD40L [1]: 0.00251 nM
Max % activation, NFkB-luc THP-1, no ligand [1]: 2%
Max % inhibition, NFkB-luc THP-1, 10 nM hCD40L [1]: -61%
100 nM Ag Bound (RU) [2]: 0.2 RU
100 nM Ag Bound (RU) [3]: 66.5 RU
EC50 in the presence of CD40L (potentiation), NFkB-luc Ramos, 500 pM hCD40L [4]: 8.14e-12 M
Max % activation, NFkB-luc Ramos, no ligand [4]: 8%
Max % inhibition, NFkB-luc Ramos, 500 pM hCD40L [4]: -130%
100 nM Ag Bound (RU) [5]: 0.2 RU
100 nM Ag Bound (RU) [6]: 62 RU
100 nM Ag Bound (RU) [7]: 63.1 RU
IC50, NFkB-luc Raji, 900 pM hCD40L [8]: 8.95e-12 M
Max % activation, NFkB-luc Raji, no ligand [8]: 9%
Max % inhibition, NFkB-luc Raji, 900 pM hCD40L [8]: 67%
B1: 30027P2 (antibody, human IgG4 S228P, kappa, V domains shown)
VH: EVQLVESGGGLVQPGGSLRLSCAASGFTFSSYAMNWVRQAPGKGLEWVSIISGTIGKTYYADSVKGRFTISRDNSKNTLYLQMNSLRGEDTAVYYCAKDTERDITGSPFDYWGQGTLVTVSS
VL: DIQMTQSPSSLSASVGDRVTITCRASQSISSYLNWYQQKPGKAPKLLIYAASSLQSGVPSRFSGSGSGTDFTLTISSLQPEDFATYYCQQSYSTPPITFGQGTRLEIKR
notes: Parental bivalent anti-CD40 mAb; also called H4sH30027P2

IC50, NFkB-luc THP-1, 10 nM hCD40L [1]: 0.437 nM
Max % activation, NFkB-luc THP-1, no ligand [1]: 1%
Max % inhibition, NFkB-luc THP-1, 10 nM hCD40L [1]: 97%
100 nM Ag Bound (RU) [2]: 0.2 RU
100 nM Ag Bound (RU) [3]: 67.2 RU
% Blocking at highest mAb concentration [9]: 94%
EC50, NFkB-luc Ramos, no ligand [4]: > 10 nM
IC50 (three highest concentrations excluded, hook effect), NFkB-luc Ramos, 500 pM hCD40L [4]: 8.06e-11 M
Max % activation, NFkB-luc Ramos, no ligand [4]: 49%
Max % inhibition, NFkB-luc Ramos, 500 pM hCD40L [4]: 63%
100 nM Ag Bound (RU) [5]: -0.5 RU
100 nM Ag Bound (RU) [6]: 76.6 RU
100 nM Ag Bound (RU) [7]: 10.1 RU
EC50, NFkB-luc Raji, no ligand [8]: > 100 nM
IC50, NFkB-luc Raji, 900 pM hCD40L [8]: 7.7e-11 M
Max % activation, NFkB-luc Raji, no ligand [8]: 25%
Max % inhibition, NFkB-luc Raji, 900 pM hCD40L [8]: 81%
B2: 21520P2 (antibody, human IgG4 S228P, kappa, V domains shown)
VH: EVQLVESGGGLVQPGGSLRLSCAASGFTFGSYGMAWVRQAPGKGLEWVSAISGSGDYTNYADSVKRRFTISRDNSKNTLYLQMSSLRAEDTAVYYCAKEKTGTTGYLYSGMDVWGQGTTVTVSS
VL: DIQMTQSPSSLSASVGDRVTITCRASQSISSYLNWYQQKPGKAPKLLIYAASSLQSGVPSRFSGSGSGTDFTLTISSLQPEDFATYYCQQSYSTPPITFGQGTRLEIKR
notes: Parental bivalent anti-CD40 mAb; also called H4sH21520P2

IC50, NFkB-luc THP-1, 10 nM hCD40L [1]: 0.276 nM
Max % activation, NFkB-luc THP-1, no ligand [1]: 5%
Max % inhibition, NFkB-luc THP-1, 10 nM hCD40L [1]: 99%
100 nM Ag Bound (RU) [2]: 1.6 RU
100 nM Ag Bound (RU) [3]: 105 RU
% Blocking at highest mAb concentration [9]: 94%
IC50, NFkB-luc Ramos, 500 pM hCD40L [4]: 3.09e-11 M
Max % activation, NFkB-luc Ramos, no ligand [4]: 13%
Max % inhibition, NFkB-luc Ramos, 500 pM hCD40L [4]: 88%
100 nM Ag Bound (RU) [5]: 0.4 RU
100 nM Ag Bound (RU) [6]: 99 RU
100 nM Ag Bound (RU) [7]: 10.3 RU
IC50, NFkB-luc Raji, 900 pM hCD40L [8]: 6.05e-11 M
Max % activation, NFkB-luc Raji, no ligand [8]: 15%
Max % inhibition, NFkB-luc Raji, 900 pM hCD40L [8]: 92%
B3: 21519P2 (antibody, human IgG4 S228P, kappa, V domains shown)
VH: QLQLQESGPGLVRPSETLSLTCSVSGASMNTNNYYWGWIRQPPGKGLEWIGSGYYNGNTYYNPSLKSRVTISVDTSKNQFSLKLNSVTAADTAVYYCARQTPPRIIGSPNIWGQGTMVTVSS
VL: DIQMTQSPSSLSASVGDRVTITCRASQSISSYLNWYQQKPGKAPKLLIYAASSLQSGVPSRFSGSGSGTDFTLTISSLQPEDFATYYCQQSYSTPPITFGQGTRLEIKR
notes: Parental bivalent anti-CD40 mAb; also called H4sH21519P2
